Test results as given in the supplement of paper PMC10567573.

B1: SETD8 (parent)
chain: FVVEYHGDLIEITDAKKREALYAQ
B2: TRIM35 (parent)
chain: WEVQVSPTCPVCKDRASPADLRTN

Variants of: B1
Test: protein stability index of a GFP-peptide fusion (GPS, HEK-293T) (PSI 1-6); higher = more stable
Settings: c terminus: a fixed tail appended
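Note: lentivirally expressed fusions sorted by FACS into six bins by GFP to DsRed ratio, PSI derived from sequencing read proportions per bin multiplied by bin number.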

| Variant | protein stability index |
| --- | --- |
| FVVEYHPDLIEITDAKKREALYAQ [G7P] | 2.65 |
| FVVEYHSDLIEITDAKKREALYAQ [G7S] | 1.89 |
| FVVEYHHDLIEITDAKKREALYAQ [G7H] | 2.08 |
| FVVEYHADLIEITDAKKREALYAQ [G7A] | 1.56 |
| FVNEYHGDLIEITDAKKREALYAQ [V3N] | 3.01 |
| FVKEYHGDLIEITDAKKREALYAQ [V3K] | 2.36 |
| FVHEYHGDLIEITDAKKREALYAQ [V3H] | 2.77 |
| FVSEYHGDLIEITDAKKREALYAQ [V3S] | 1.84 |
| FVIEYHGDLIEITDAKKREALYAQ [V3I] | 2.83 |
| FVLEYHGDLIEITDAKKREALYAQ [V3L] | 1.98 |
| FVYEYHGDLIEITDAKKREALYAQ [V3Y] | 1.99 |
| FVGEYHGDLIEITDAKKREALYAQ [V3G] | 3.07 |
| FVMEYHGDLIEITDAKKREALYAQ [V3M] | 2.64 |
| FVWEYHGDLIEITDAKKREALYAQ [V3W] | 2.12 |
| FVDEYHGDLIEITDAKKREALYAQ [V3D] | 2.15 |
| FVEEYHGDLIEITDAKKREALYAQ [V3E] | 2.83 |
| FVREYHGDLIEITDAKKREALYAQ [V3R] | 2.02 |
| FVTEYHGDLIEITDAKKREALYAQ [V3T] | 2.23 |
| FVAEYHGDLIEITDAKKREALYAQ [V3A] | 1.81 |
| FVCEYHGDLIEITDAKKREALYAQ [V3C] | 2.24 |

| Variant | protein stability index |
| --- | --- |
| FVPEYHGDLIEITDAKKREALYAQ [V3P] | 2.03 |
| FVFEYHGDLIEITDAKKREALYAQ [V3F] | 1.51 |
| FVQEYHGDLIEITDAKKREALYAQ [V3Q] | 2.32 |
| FVVVYHGDLIEITDAKKREALYAQ [E4V] | 1.6 |
| FVVQYHGDLIEITDAKKREALYAQ [E4Q] | 2.69 |
| FVVSYHGDLIEITDAKKREALYAQ [E4S] | 1.76 |
| FVVYYHGDLIEITDAKKREALYAQ [E4Y] | 1.72 |
| FVVWYHGDLIEITDAKKREALYAQ [E4W] | 1.44 |
| FVVDYHGDLIEITDAKKREALYAQ [E4D] | 2.35 |
| FVVHYHGDLIEITDAKKREALYAQ [E4H] | 1.6 |
| FVVIYHGDLIEITDAKKREALYAQ [E4I] | 1.03 |
| FVVAYHGDLIEITDAKKREALYAQ [E4A] | 2.3 |
| FVVMYHGDLIEITDAKKREALYAQ [E4M] | 1.67 |
| FVVNYHGDLIEITDAKKREALYAQ [E4N] | 1.92 |
| FVVCYHGDLIEITDAKKREALYAQ [E4C] | 1.82 |
| FVVFYHGDLIEITDAKKREALYAQ [E4F] | 1.88 |
| FVVLYHGDLIEITDAKKREALYAQ [E4L] | 2.61 |
| FVVKYHGDLIEITDAKKREALYAQ [E4K] | 1.45 |
| FVVRYHGDLIEITDAKKREALYAQ [E4R] | 1.97 |
| FVVTYHGDLIEITDAKKREALYAQ [E4T] | 1.74 |

| Variant | protein stability index |
| --- | --- |
| FVVGYHGDLIEITDAKKREALYAQ [E4G] | 3.07 |
| FVVPYHGDLIEITDAKKREALYAQ [E4P] | 1.84 |
| RVVEYHGDLIEITDAKKREALYAQ [F1R] | 3.74 |
| PVVEYHGDLIEITDAKKREALYAQ [F1P] | 4.46 |
| AVVEYHGDLIEITDAKKREALYAQ [F1A] | 4.23 |
| QVVEYHGDLIEITDAKKREALYAQ [F1Q] | 4.63 |
| LVVEYHGDLIEITDAKKREALYAQ [F1L] | 1.85 |
| TVVEYHGDLIEITDAKKREALYAQ [F1T] | 4.14 |
| SVVEYHGDLIEITDAKKREALYAQ [F1S] | 4.43 |
| VVVEYHGDLIEITDAKKREALYAQ [F1V] | 2.5 |
| EVVEYHGDLIEITDAKKREALYAQ [F1E] | 4.75 |
| NVVEYHGDLIEITDAKKREALYAQ [F1N] | 4.78 |
| MVVEYHGDLIEITDAKKREALYAQ [F1M] | 2.71 |
| HVVEYHGDLIEITDAKKREALYAQ [F1H] | 4.35 |
| GVVEYHGDLIEITDAKKREALYAQ [F1G] | 4.8 |
| KVVEYHGDLIEITDAKKREALYAQ [F1K] | 3.65 |
| IVVEYHGDLIEITDAKKREALYAQ [F1I] | 2.37 |
| YVVEYHGDLIEITDAKKREALYAQ [F1Y] | 2.62 |
| CVVEYHGDLIEITDAKKREALYAQ [F1C] | 3.3 |
| DVVEYHGDLIEITDAKKREALYAQ [F1D] | 4.46 |

Variants of: B2
Test: as above
Settings: c terminus: a fixed tail appended

| Variant | protein stability index |
| --- | --- |
| WEVQVSPTCPVCKDRASPADLITN [R22I] | 2.7 |
| WEVQVSPTCPVCKDRASPADLHTN [R22H] | 2.54 |
| WEVQVSPTCPVGKDRASPADLRTN [C12G] | 3.7 |
| WEVQVSPTCPVCKDRASPADVRTN [L21V] | 3.33 |
| WEVQVSPTCPVCKDRASPADSRTN [L21S] | 2.58 |
| WEVQVSPTCPVCWDRASPADLRTN [K13W] | 2.09 |
| MEVQVSPTCPVCKDRASPADLRTN [W1M] | 2.75 |
| FEVQVSPTCPVCKDRASPADLRTN [W1F] | 2.85 |
| WEVQVSPTCPVCKDRASPWDLRTN [A19W] | 2.3 |
| WEVQVSPTPPVCKDRASPADLRTN [C9P] | 3.11 |
| WEVQVSPTLPVCKDRASPADLRTN [C9L] | 1.98 |
| WEVQVSYTCPVCKDRASPADLRTN [P7Y] | 2.31 |
| WEVQVSGTCPVCKDRASPADLRTN [P7G] | 3.03 |
| WEVQVSSTCPVCKDRASPADLRTN [P7S] | 2.5 |
| WEVQVSPQCPVCKDRASPADLRTN [T8Q] | 2.33 |
| WEVQVLPTCPVCKDRASPADLRTN [S6L] | 2.6 |
| WEVQVKPTCPVCKDRASPADLRTN [S6K] | 1.85 |

| Variant | protein stability index |
| --- | --- |
| WEVQVSPTCPVCKDRANPADLRTN [S17N] | 2.51 |
| WEVQVSPTCPVCKDRADPADLRTN [S17D] | 3.31 |
| WEVQVSPTCPVCKDRASRADLRTN [P18R] | 3.2 |
| WEVQVSPTCPVCKDRASDADLRTN [P18D] | 1.99 |
| WEVQVSPTCPVCKDRASPANLRTN [D20N] | 2.2 |
| WNVQVSPTCPVCKDRASPADLRTN [E2N] | 2.3 |
| WDVQVSPTCPVCKDRASPADLRTN [E2D] | 2.2 |
| WEVQPSPTCPVCKDRASPADLRTN [V5P] | 1.68 |
| WEVQVSPTCVVCKDRASPADLRTN [P10V] | 2.02 |
| WEVQVSPTCQVCKDRASPADLRTN [P10Q] | 3.01 |
| WEVQVSPTCCVCKDRASPADLRTN [P10C] | 3.25 |
| WEVQVSPTCPVCKDRASPADLRTK [N24K] | 3.12 |
| WEVQVSPTCPVCKDNASPADLRTN [R15N] | 2.48 |
| WEVQVSPTCPVCKDEASPADLRTN [R15E] | 3.43 |
| WEVQVSPTCPVCKDSASPADLRTN [R15S] | 3.07 |
| WEVQVSPTCPVCKHRASPADLRTN [D14H] | 1.81 |
| WEVQVSPTCPVCKLRASPADLRTN [D14L] | 2.62 |
